Measurements taken from the MegaScale stability set (Tsuboyama et al. 2023).

B1: EEHEE_rd4_0647 (parent)
chain: MQVTWGNVTVTFSNPEEAKKYAEKVARKLGGQVELHNGQFRIK

Variants of: B1
Test: folding stability dG (cDNA display proteolysis); higher = more stable
Conditions: PBS, room temperature

Variant	folding stability dG [kcal/mol]
V33K	0.686
V33A	1.82
V33W	2.13
V33Q	0.541
L35N	1.96
L35R	2.13
L35K	2.11
L35S	2.04
V10M	2.67
V10S	1.23
V10A	1.97
F12K	0.98
F12T	0.01
F12Q	0.017
F12R	0.663
R41Q	2.66
R41G	1.3
R41F	3.5
R41I	3.53
R41C	2.94
V25Q	1.87
V25E	0.927
V25D	0.13
M1E	1.3

Variant	folding stability dG [kcal/mol]
M1Y	3.45
M1L	2.78
M1V	3.11
M1R	2.57
M1D	1.42
N37L	2.14
N37M	2.11
N37K	2.26
N37V	1.39
N37A	2.05
K20W	2.67
K20E	2.73
K20N	2.58
K20L	2.86
Y21C	2.87
Y21G	0.194
E34F	2.6
E34Q	2.25
E34N	1.6
A18V	0.732
A18F	1.05
R27V	2.36
R27A	2.78
R27I	2.52

Variant	folding stability dG [kcal/mol]
R27L	2.75
Q39Y	2.29
Q39P	0.269
Q39R	2.45
Q39A	2.73
A26Q	1.06
A26H	0.769
A26E	0.315
T11C	3.51
T11N	2.58
T11M	2.64
K24V	2.59
K24N	2.5
K24P	-0.146
K24M	3.16
K24H	2.89
K24C	3.81
K24S	2.73
E16F	2.71
E16T	2.75
E16S	2.68
E16H	2.7
T4Y	2.21
T4D	0.672

Variant	folding stability dG [kcal/mol]
T4K	2.58
T4Q	2.49
T4V	3.15
T4H	2.54
N7S	2.68
N7Y	2.54
N7H	2.64
N7I	2.31
N7V	2.33
N7E	2.39
A22P	-0.509
A22Q	0.207
A22R	0.493
L29C	2.92
L29G	1.17
G38R	1.89
G38H	3.93
G38K	1.81
G38P	0.661
H36E	2.78
H36D	2.53
G31Y	2.04
G31V	2.27
G31P	0.55

Variant	folding stability dG [kcal/mol]
G31H	2.11
E17M	2.83
E17L	2.84
E17V	2.64
S13E	2.65
S13H	2.62
S13F	2.49
S13V	2.51
K43L	3.2
K43S	2.64
K43D	1.93
N14Q	2.2
N14S	2.86
N14V	2.05
N14F	1.98
F40P	0.658
V8N	2.51
V8A	1.89
V8E	1.92
V8G	1.49
V8Y	2.84
K28N	2.29
E23Q	2.62
E23W	2.73

Variant	folding stability dG [kcal/mol]
E23P	0.119
E23T	2.37
E23A	2.43
E23D	2.62
E23C	3.37
V3I	1.61
V3E	0.263
V3F	1.97
V3Q	0.078
V3W	0.9
V3S	0.229
P15Y	3.5
P15R	2.78
P15F	3.41
T9H	1.77
T9E	1.46
T9Q	1.84
T9S	2.26
T9D	0.892
I42E	0.453
I42W	1.13
I42S	0.574
I42M	0.646
K19T	1.62

Variant	folding stability dG [kcal/mol]
K19Q	2.61
K19L	3.02
K19Y	2.94
K19N	1.71
K19W	2.88
G30N	2.63
G30M	2.05
G30W	1.74
Q32D	2.11
Q32E	2.76
Q32I	3.27
Q32A	2.52
Q32C	3.47
Q32S	3
Q32P	1.33
G6H	2.48
G6P	0.79
G6R	2.21
G6Y	2.51
G6S	2.08
G6C	3.2
Q2D	2.46
Q2I	2.82
